The text below walks through data of article PMC5042576.

The target of the test is Actin filaments decorated with Tpm3.1 (chicken | human) (UniProt P68139).

Mouse melanophilin with N-terminal SNAP tag and C-terminal Flag tag, sequence (Q91V27 whole entry): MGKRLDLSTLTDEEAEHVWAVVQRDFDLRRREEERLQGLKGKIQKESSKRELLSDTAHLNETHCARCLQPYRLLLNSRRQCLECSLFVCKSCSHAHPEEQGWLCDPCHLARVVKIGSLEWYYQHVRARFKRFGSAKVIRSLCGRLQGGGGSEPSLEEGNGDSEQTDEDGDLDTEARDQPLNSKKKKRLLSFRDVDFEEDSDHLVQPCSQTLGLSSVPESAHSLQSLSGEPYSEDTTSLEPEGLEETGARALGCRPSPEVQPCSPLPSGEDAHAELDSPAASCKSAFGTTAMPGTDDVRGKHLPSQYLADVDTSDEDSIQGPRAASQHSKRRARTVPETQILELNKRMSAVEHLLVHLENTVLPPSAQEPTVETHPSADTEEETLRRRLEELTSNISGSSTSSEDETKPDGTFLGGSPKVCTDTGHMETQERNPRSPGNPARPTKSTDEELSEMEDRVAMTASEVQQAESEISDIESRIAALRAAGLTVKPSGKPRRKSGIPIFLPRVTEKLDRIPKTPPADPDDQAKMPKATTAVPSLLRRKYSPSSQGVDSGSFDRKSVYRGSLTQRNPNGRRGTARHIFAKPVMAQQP

Consider “Mouse melanophilin with N-terminal SNAP tag and C-terminal Flag tag (from UniProt Q91V27 1-590) (natural protein)”, for which the fold affinity against actin–Tpm1.8 and actin–Tpm4.2 was determined as 2 fold.
